Measured values taken from publication PMC4321881.

Biological target: nascent chain-containing 60S ribosomal subunit (60S-RNC) (UniProt P35268)

Listerin, sequence (O94822 whole entry): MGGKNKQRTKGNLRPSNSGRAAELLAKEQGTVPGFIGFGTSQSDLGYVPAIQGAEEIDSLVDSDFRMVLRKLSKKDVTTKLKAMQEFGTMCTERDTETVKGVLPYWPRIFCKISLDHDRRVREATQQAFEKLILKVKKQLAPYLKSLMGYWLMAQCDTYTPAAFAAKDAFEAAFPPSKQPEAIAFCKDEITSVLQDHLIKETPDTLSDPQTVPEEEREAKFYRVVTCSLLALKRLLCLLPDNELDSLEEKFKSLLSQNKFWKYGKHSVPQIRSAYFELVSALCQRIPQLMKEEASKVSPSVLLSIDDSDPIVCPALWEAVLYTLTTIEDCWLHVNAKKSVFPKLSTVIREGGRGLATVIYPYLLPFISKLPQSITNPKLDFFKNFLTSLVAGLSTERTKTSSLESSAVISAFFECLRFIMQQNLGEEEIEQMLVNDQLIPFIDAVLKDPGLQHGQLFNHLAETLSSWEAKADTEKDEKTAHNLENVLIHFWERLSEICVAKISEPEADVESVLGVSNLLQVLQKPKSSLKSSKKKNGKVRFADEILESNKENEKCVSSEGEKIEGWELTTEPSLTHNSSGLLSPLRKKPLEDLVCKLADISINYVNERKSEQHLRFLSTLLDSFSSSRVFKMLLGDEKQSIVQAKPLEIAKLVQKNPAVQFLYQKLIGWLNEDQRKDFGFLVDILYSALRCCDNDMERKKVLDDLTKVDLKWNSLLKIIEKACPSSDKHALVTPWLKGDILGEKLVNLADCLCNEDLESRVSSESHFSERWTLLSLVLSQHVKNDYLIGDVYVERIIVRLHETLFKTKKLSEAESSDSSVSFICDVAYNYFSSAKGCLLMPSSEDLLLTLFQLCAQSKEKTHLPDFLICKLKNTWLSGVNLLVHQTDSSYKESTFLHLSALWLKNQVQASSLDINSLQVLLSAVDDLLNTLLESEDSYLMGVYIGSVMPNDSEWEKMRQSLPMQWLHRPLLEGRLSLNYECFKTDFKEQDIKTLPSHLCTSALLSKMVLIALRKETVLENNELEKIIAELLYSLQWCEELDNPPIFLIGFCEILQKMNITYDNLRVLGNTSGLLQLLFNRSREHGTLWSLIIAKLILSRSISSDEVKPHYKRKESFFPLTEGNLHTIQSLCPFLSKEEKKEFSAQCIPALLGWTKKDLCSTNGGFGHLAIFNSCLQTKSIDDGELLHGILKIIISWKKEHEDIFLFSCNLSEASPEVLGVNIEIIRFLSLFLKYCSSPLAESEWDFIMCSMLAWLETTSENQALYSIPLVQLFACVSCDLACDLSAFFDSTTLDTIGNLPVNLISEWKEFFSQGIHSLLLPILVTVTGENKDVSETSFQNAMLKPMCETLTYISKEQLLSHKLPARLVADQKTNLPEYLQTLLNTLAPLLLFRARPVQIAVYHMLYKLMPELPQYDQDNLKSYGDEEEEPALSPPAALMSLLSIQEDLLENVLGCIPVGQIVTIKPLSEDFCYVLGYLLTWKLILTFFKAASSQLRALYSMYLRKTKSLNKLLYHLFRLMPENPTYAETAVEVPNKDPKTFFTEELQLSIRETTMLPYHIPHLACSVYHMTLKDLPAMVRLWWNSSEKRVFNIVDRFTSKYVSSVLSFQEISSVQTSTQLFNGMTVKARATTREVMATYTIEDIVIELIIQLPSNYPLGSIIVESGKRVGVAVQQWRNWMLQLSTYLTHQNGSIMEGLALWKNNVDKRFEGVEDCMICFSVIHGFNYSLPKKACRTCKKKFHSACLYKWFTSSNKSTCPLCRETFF

poly-ubiquitination of the nascent chain-tRNA, purified NEMF titrated into reactions with 5 nM 80S-RNCs and 1.2 nM Listerin, relative to no NEMF: 3 to 5 fold
Substance: Listerin (from UniProt O94822 1-1766) (enzyme)
